Data published in EP2585123B1 (Planton GmbH, dated 2014).
Ends that are not written are not given here.

Biological target: collagen scaffold (bovine collagen type I) (bovine, UniProt P02453 162-1217; P02465 80-1117)
Assay: cell-based or functional assay

Chain of collagen scaffold (bovine collagen type I) (P02453 162-1217, chain 1 of 2): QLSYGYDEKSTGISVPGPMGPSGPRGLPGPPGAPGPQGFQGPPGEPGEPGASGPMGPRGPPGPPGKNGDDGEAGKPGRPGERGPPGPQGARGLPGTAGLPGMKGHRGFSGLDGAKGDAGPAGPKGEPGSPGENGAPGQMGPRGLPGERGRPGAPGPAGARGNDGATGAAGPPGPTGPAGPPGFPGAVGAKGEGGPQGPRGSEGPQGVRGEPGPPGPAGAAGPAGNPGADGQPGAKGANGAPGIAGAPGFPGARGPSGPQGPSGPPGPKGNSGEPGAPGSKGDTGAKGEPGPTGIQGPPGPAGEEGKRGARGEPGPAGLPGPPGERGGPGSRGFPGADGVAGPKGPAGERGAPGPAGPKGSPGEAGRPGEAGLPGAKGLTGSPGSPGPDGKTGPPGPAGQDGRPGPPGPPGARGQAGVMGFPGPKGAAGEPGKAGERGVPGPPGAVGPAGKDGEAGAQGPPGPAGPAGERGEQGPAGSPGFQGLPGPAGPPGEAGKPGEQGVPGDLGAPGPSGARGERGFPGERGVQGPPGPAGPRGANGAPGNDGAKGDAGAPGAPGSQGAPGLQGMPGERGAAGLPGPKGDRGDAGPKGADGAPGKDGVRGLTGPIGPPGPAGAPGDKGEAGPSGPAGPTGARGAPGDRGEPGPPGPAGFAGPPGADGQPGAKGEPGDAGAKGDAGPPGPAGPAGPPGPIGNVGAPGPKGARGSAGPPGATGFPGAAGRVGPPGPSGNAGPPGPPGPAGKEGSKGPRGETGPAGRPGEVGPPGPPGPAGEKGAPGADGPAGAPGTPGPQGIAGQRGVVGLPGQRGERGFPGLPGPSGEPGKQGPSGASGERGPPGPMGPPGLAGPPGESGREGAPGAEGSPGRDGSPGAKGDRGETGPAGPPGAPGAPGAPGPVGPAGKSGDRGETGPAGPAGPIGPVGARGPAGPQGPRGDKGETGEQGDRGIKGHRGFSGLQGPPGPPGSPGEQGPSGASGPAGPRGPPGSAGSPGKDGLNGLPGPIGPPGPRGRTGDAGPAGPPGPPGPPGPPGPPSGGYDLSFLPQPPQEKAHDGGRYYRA
Chain of collagen scaffold (bovine collagen type I) (P02465 80-1117, chain 2 of 2): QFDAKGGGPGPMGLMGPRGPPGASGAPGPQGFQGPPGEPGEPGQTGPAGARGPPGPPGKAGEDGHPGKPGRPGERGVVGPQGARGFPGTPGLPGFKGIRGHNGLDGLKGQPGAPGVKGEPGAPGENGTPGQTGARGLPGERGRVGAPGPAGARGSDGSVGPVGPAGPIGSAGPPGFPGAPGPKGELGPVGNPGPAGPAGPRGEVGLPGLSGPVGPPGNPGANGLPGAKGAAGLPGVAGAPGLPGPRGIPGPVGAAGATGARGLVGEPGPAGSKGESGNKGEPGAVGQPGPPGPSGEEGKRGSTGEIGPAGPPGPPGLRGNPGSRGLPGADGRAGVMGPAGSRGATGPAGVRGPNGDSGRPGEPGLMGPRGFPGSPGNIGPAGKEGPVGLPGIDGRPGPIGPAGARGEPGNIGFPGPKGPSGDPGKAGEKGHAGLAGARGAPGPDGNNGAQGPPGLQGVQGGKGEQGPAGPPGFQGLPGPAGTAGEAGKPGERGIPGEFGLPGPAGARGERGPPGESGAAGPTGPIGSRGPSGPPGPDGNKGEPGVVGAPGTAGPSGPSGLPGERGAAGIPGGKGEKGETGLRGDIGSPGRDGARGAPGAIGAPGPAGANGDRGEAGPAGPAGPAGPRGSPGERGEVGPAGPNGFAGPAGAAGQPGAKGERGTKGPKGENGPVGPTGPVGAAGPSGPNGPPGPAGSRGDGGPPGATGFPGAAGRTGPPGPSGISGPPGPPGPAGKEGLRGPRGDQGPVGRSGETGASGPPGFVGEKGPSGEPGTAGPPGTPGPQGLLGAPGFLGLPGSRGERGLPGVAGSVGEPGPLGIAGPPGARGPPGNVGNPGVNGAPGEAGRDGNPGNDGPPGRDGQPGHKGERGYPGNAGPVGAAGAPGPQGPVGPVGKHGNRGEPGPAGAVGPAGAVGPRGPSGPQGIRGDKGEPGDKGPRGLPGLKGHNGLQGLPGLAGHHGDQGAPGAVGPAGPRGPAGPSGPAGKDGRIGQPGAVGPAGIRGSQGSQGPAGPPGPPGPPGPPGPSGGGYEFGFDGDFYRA

Question: What does the source list for GIGDPVTCLKSGAICHPVFCPRRYKQIGTCGLPGTKCCKKP (ends and bridges not checked; cysteine pairing not given here) [human β-defensin-2]?
Answer: hBD2 released by the collagen scaffold (agar diffusion assay, zone of inhibition, 10 µg hβD2): 40%; hBD2 retarded by the collagen scaffold (agar diffusion assay, zone of inhibition, 10 µg hβD2): 60%; killing of the bacteria, collagen scaffold treated with 5 µg HAS, 4 µg hβD2, microdilution assay: 100%; killing rate, collagen scaffold treated with 5 µg BSA, 4 µg hβD2, microdilution assay: 98%; killing rate, collagen scaffold without gelatine (unblocked), 4 µg hβD2, microdilution assay: 86%; killing, collagen scaffold pre-treated with 10 µl of a 0.1% gelatine solution, 4 µg hβD2, microdilution assay: 94%
